Laboratory results: patent US20160355591A1

How the values were obtained:
[1] = biological target: T1, CD20 on human cells (human) (UniProt P11836); assay: WAC (CLL) cells; no mAb 15.8
T1 sequence (looked up): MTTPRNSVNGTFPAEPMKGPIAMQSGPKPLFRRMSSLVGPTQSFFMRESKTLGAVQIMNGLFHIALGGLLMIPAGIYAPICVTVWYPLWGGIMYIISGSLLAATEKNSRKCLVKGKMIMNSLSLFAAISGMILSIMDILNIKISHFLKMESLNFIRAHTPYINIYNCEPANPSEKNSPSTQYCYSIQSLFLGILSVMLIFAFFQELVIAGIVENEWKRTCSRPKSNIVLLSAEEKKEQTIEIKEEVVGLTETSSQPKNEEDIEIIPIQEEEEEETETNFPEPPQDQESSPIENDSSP

[2] = biological target: T2, CD20 on dog lymphocytes and dog lymphoma cells (dog) (UniProt Q3C2E2); assay: flow cytometry, canine lymphoma aspirate 150836; none 3.9
T2 sequence (looked up): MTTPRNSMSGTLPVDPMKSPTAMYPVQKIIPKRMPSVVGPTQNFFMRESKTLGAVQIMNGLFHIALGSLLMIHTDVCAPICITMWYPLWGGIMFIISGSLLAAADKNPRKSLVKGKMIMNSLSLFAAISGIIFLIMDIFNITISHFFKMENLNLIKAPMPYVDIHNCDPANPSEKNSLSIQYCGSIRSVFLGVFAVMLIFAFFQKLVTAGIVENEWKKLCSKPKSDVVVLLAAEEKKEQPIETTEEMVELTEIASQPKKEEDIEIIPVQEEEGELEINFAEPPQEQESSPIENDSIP

[3] = biological target: T2, CD20 on dog lymphocytes and dog lymphoma cells (dog); assay: flow cytometry, dog lymphoma aspirate; none 3.37
[4] = biological target: T1, CD20 on human cells (human); assay: Jeko-1 (MCL) cells; no mAb 14.3
[5] = biological target: T1, CD20 on human cells (human); assay: GDM-1 (AML) cells; no mAb 16.8
[6] = biological target: T2, CD20 on dog lymphocytes and dog lymphoma cells (dog); assay: flow cytometry, canine lymphoma aspirate 150836; none 3.4
[7] = biological target: T1, CD20 on human cells (human); assay: Kasumi-1 (AML) cells; no mAb 18.2
[8] = biological target: T1, CD20 on human cells (human); assay: MN60 (ALL) cells; no mAb 8.1
[9] = biological target: T1, CD20 on human cells (human); assay: Granta-519 (MCL) cells; no mAb 15.3
[10] = biological target: T1, CD20 on human cells (human); assay: MEC-1 (CLL) cells; no mAb 4.7
[11] = biological target: T1, CD20 on human cells (human); assay: HC-1 (hairy cell leukemia) cells; no mAb 4.8
[12] = biological target: T1, CD20 on human cells (human); assay: K562 (CML) cells; no mAb 3.2
[13] = biological target: T1, CD20 on human cells (human); assay: indirect flow cytometry, Namalwa cells, FITC-GAM 2nd Ab; none 2.91
[14] = biological target: T2, CD20 on dog lymphocytes and dog lymphoma cells (dog); assay: flow cytometry on tumor aspirates from dogs with lymphoma
[15] = biological target: T1, CD20 on human cells (human); assay: 697 (ALL) cells; no mAb 4.9
[16] = biological target: T1, CD20 on human cells (human); assay: RS4;11 (ALL) cells; no mAb 6.4
[17] = biological target: T2, CD20 on dog lymphocytes and dog lymphoma cells (dog); assay: flow cytometry, dog lymphoma aspirate; none 3.85
[18] = biological target: T1, CD20 on human cells (human); assay: REH (ALL) cells; no mAb 3.9
[19] = biological target: T1, CD20 on human cells (human); assay: Kasumi-3 (AML) cells; no mAb 9.6
[20] = biological target: HLA-DR (L243 antigen) on canine lymphocytes and canine lymphoma cells (dog); assay: flow cytometry, dog lymphoma aspirate; none 3.37; control antibody
[21] = biological target: HLA-DR (human leukocyte antigen-DR) on human lymphoma and leukemia cells and human lymphocytes (human); assay: GDM-1 (AML) cells; no mAb 16.8; isotype control
[22] = biological target: HLA-DR (human leukocyte antigen-DR) on human lymphoma and leukemia cells and human lymphocytes (human); assay: WAC (CLL) cells; no mAb 15.8; isotype control
[23] = biological target: HLA-DR (L243 antigen) on canine lymphocytes and canine lymphoma cells (dog); assay: flow cytometry, canine lymphoma aspirate 150836; none 3.4; control antibody
[24] = biological target: HLA-DR (human leukocyte antigen-DR) on human lymphoma and leukemia cells and human lymphocytes (human); assay: HC-1 (hairy cell leukemia) cells; no mAb 4.8; isotype control
[25] = biological target: HLA-DR (human leukocyte antigen-DR) on human lymphoma and leukemia cells and human lymphocytes (human); assay: Granta-519 (MCL) cells; no mAb 15.3; isotype control
[26] = biological target: HLA-DR (L243 antigen) on canine lymphocytes and canine lymphoma cells (dog); assay: flow cytometry, dog lymphoma aspirate; none 3.85; control antibody
[27] = biological target: HLA-DR (human leukocyte antigen-DR) on human lymphoma and leukemia cells and human lymphocytes (human); assay: Kasumi-3 (AML) cells; no mAb 9.6; isotype control
[28] = biological target: HLA-DR (human leukocyte antigen-DR) on human lymphoma and leukemia cells and human lymphocytes (human); assay: MN60 (ALL) cells; no mAb 8.1; isotype control
[29] = biological target: HLA-DR (human leukocyte antigen-DR) on human lymphoma and leukemia cells and human lymphocytes (human); assay: indirect flow cytometry, Namalwa cells, FITC-GAM 2nd Ab; none 2.91; control antibody
[30] = biological target: HLA-DR (human leukocyte antigen-DR) on human lymphoma and leukemia cells and human lymphocytes (human); assay: MEC-1 (CLL) cells; no mAb 4.7; isotype control
[31] = biological target: HLA-DR (human leukocyte antigen-DR) on human lymphoma and leukemia cells and human lymphocytes (human); assay: REH (ALL) cells; no mAb 3.9; isotype control
[32] = biological target: HLA-DR (L243 antigen) on canine lymphocytes and canine lymphoma cells (dog); assay: flow cytometry, canine lymphoma aspirate 150836; none 3.9; control antibody
[33] = biological target: HLA-DR (human leukocyte antigen-DR) on human lymphoma and leukemia cells and human lymphocytes (human); assay: 697 (ALL) cells; no mAb 4.9; isotype control
[34] = biological target: HLA-DR (human leukocyte antigen-DR) on human lymphoma and leukemia cells and human lymphocytes (human); assay: K562 (CML) cells; no mAb 3.2; isotype control
[35] = biological target: HLA-DR (human leukocyte antigen-DR) on human lymphoma and leukemia cells and human lymphocytes (human); assay: Kasumi-1 (AML) cells; no mAb 18.2; isotype control
[36] = biological target: HLA-DR (human leukocyte antigen-DR) on human lymphoma and leukemia cells and human lymphocytes (human); assay: RS4;11 (ALL) cells; no mAb 6.4; isotype control
[37] = biological target: HLA-DR (human leukocyte antigen-DR) on human lymphoma and leukemia cells and human lymphocytes (human); assay: Jeko-1 (MCL) cells; no mAb 14.3; isotype control
[38] = biological target: CD22 on human cells (human) (UniProt P20273); assay: WAC (CLL) cells; no mAb 15.8
[39] = biological target: CD22 on dog lymphocytes and dog lymphoma cells (dog); assay: flow cytometry, canine lymphoma aspirate 150836; none 3.9
[40] = biological target: CD22 on dog lymphocytes and dog lymphoma cells (dog); assay: flow cytometry, dog lymphoma aspirate; none 3.37
[41] = biological target: CD22 on human cells (human) (UniProt P20273); assay: Jeko-1 (MCL) cells; no mAb 14.3
[42] = biological target: CD22 on human cells (human) (UniProt P20273); assay: GDM-1 (AML) cells; no mAb 16.8
[43] = biological target: CD22 on dog lymphocytes and dog lymphoma cells (dog); assay: flow cytometry, canine lymphoma aspirate 150836; none 3.4
[44] = biological target: CD22 on human cells (human) (UniProt P20273); assay: Kasumi-1 (AML) cells; no mAb 18.2
[45] = biological target: CD22 on human cells (human) (UniProt P20273); assay: MN60 (ALL) cells; no mAb 8.1
[46] = biological target: CD22 on human cells (human) (UniProt P20273); assay: Granta-519 (MCL) cells; no mAb 15.3
[47] = biological target: CD22 on human cells (human) (UniProt P20273); assay: MEC-1 (CLL) cells; no mAb 4.7
[48] = biological target: CD22 on human cells (human) (UniProt P20273); assay: HC-1 (hairy cell leukemia) cells; no mAb 4.8
[49] = biological target: CD22 on human cells (human) (UniProt P20273); assay: K562 (CML) cells; no mAb 3.2
[50] = biological target: CD22 on human cells (human) (UniProt P20273); assay: indirect flow cytometry, Namalwa cells, FITC-GAM 2nd Ab; none 2.91
[51] = biological target: CD22 on human cells (human) (UniProt P20273); assay: 697 (ALL) cells; no mAb 4.9
[52] = biological target: CD22 on human cells (human) (UniProt P20273); assay: RS4;11 (ALL) cells; no mAb 6.4
[53] = biological target: CD22 on dog lymphocytes and dog lymphoma cells (dog); assay: flow cytometry, dog lymphoma aspirate; none 3.85
[54] = biological target: CD22 on human cells (human) (UniProt P20273); assay: REH (ALL) cells; no mAb 3.9
[55] = biological target: CD22 on human cells (human) (UniProt P20273); assay: Kasumi-3 (AML) cells; no mAb 9.6
[56] = biological target: HLA-DR (human leukocyte antigen-DR) on human lymphoma and leukemia cells and human lymphocytes (human); assay: indirect flow cytometry, Namalwa cells, FITC-GAM 2nd Ab; none 2.91; antibody of irrelevant specificity
[57] = biological target: Fcγ-receptor on effector cells; assay: cell-based or functional assay
[58] = biological target: CD22 on dog lymphocytes and dog lymphoma cells (dog); assay: flow cytometry, canine lymphoma aspirate 150836; none 4.5
[59] = biological target: CD22 on dog lymphocytes and dog lymphoma cells (dog); assay: flow cytometry, canine lymphoma aspirate 150836; none 3.2
[60] = biological target: CD22 on dog lymphocytes and dog lymphoma cells (dog); assay: flow cytometry, dog lymphoma aspirate; none 3.24
[61] = biological target: CD22 on dog lymphocytes and dog lymphoma cells (dog); assay: flow cytometry, dog lymphoma aspirate; none 4.48
[62] = biological target: HLA-DR (human leukocyte antigen-DR) on human lymphoma and leukemia cells and human lymphocytes (human); assay: indirect flow cytometry, Namalwa cells, FITC-GAH 2nd Ab; none 2.52; antibody of irrelevant specificity (anti-EGP-1)

2B8 (murine anti-human CD20 mAb) (antibody)
mean FL [1]: 275
% Positive [2]: 2.6%
mean FL [3]: 3.11
mean FL [4]: 455
mean FL [5]: 15.6
mean FL [6]: 3.1
mean FL [7]: 14.5
mean FL [8]: 162
mean FL [9]: 677
mean FL [10]: 175
mean FL [11]: 42.2
mean FL [12]: 4.3
geometric mean fluorescence [13]: 6.16
positive samples (of 21 samples) [14]: 5
strongly positive samples (of 21 samples) [14]: 3
mean FL [15]: 6.9
mean FL [16]: 11.5
% Positive [17]: 2.61%
mean FL [18]: 23.5
mean FL [19]: 11

Ag8 (P3x63 Ag8, murine myeloma derived mAb, isotype control) (antibody)
mean FL [20]: 3.04
mean FL [21]: 20.1
mean FL [22]: 14.4
mean FL [23]: 3
mean FL [24]: 3.5
mean FL [25]: 16.9
% Positive [26]: 2.81%
mean FL [27]: 15.7
mean FL [28]: 10.5
geometric mean fluorescence [29]: 3.64
mean FL [30]: 6
mean FL [31]: 3.9
% Positive [32]: 2.8%
mean FL [33]: 5.6
mean FL [34]: 4.1
mean FL [35]: 17
mean FL [36]: 8.6
mean FL [37]: 17.4

LL2 (murine anti-human CD22 mAb) (antibody)
mean FL [38]: 20.1
% Positive [39]: 5.1%
mean FL [40]: 3.73
mean FL [41]: 25
mean FL [42]: 28.5
mean FL [43]: 3.7
mean FL [44]: 20.9
mean FL [45]: 17.1
mean FL [46]: 28.6
mean FL [47]: 49
mean FL [48]: 17.8
mean FL [49]: 4.3
geometric mean fluorescence [50]: 10.5
mean FL [51]: 15.9
mean FL [52]: 20.9
% Positive [53]: 5.05%
mean FL [54]: 16.8
mean FL [55]: 13.9

RS7 (murine mAb) (antibody)
geometric mean fluorescence [56]: 3.39

hL243 (humanized L243 anti-HLA-DR antibody, IgG1/K isotype)
specific lysis of Daudi target cells (ADCC), corrected for the effect on effector cells [57]: 48%

hL243γ4P (IMMU-114; humanized L243, IgG4/K isotype with Ser241Pro hinge mutation) (antibody)
specific lysis of Daudi target cells (ADCC), corrected for the effect on effector cells [57]: 12%

hLL2 (epratuzumab, humanized anti-CD22) (antibody)
% Positive [58]: 4.9%
mean FL [59]: 3.4
mean FL [60]: 3.37
% Positive [61]: 4.85%

hRS7 (humanized anti-EGP-1 antibody)
geometric mean fluorescence [62]: 2.47
